This is an account of results in paper PMC10034513.

The target in series [1] is P74-26 TTP Q167A variant (bacteriophage P74-26). Nature of the series: SEC-MALS; 100 μl at 1 mg/ml, filtered through 0.22 μm before loading; 50 mM Tris pH 8.0, 150 mM KCl, 5 mM βME, 5% glycerol; run at room temperature.
For series [2], the target named is P74-26 tail tube protein (TTP), gp93, in tails of purified virions (bacteriophage P74-26). The series can be described thus: cryo-EM structure; tails of purified P74-26 virions, segmented helical reconstruction (C3, rise 40.25 Å, twist -44.75°).
The nature of series [3]: SEC-MALS; 100 μl at 1 mg/ml, filtered through 0.22 μm before loading; 50 mM Tris pH 8.0, 150 mM KCl, 5 mM βME, 5% glycerol; run at room temperature.
In series [4] the target is P74-26 tail tube protein (TTP), gp93, recombinant wild type (bacteriophage P74-26). Nature of the series: light scattering of tube assembly; filtered TTP at ~1 mg/ml, scattering at 350 nm over time; wild type at 4, 20, 25, 37 and 50 °C and a concentration series at 37 °C; variants at 20 °C.
The target is the same in series [5]. The series can be described thus: SEC-MALS; 100 μl at 1 mg/ml, filtered through 0.22 μm before loading; 50 mM Tris pH 8.0, 150 mM KCl, 5 mM βME, 5% glycerol; run at room temperature.
Series [6] addresses P74-26 TTP L229A variant (bacteriophage P74-26). Nature of the series: light scattering of tube assembly; filtered TTP at ~1 mg/ml, scattering at 350 nm over time; wild type at 4, 20, 25, 37 and 50 °C and a concentration series at 37 °C; variants at 20 °C.

“P74-26 TTP Q167A variant (natural protein)” displayed a stoichiometry N in series [1] of 3.
As to “P74-26 tail tube protein (TTP), gp93, in tails of purified virions (natural protein)”, the stoichiometry N in series [2] is 3.
“P74-26 tail tube protein (TTP), gp93, recombinant wild type”: the “mass fraction of the monomer peak” value in series [3] is reported as “∼76% mass fraction”.
On to “P74-26 tail tube protein (TTP), gp93, recombinant wild type (natural protein)”, for which, in series [4], the fast-phase tube growth rate at 37 °C relative to the 20 °C rate (fold (× the 20 °C rate)) is 68 and the fast-phase tube growth rate at 50 °C relative to the 20 °C rate (fold (× the 20 °C rate)) was found to be 3520. Moreover, in series [5], the mass fraction of the hexamer peak stood at 6% and the stoichiometry N was 6.
Regarding “P74-26 TTP L229A variant (natural protein)”, the tube formation rate relative to WT (% of the WT rate) in series [6] is 10.
